The record followed here is patent US20170015742A1 (published 2017).

What is called Kd is the concentration at which binding is half-saturated. Read a low Kd as higher affinity. Usually kon stands for the rate constant with which the complex forms. Read a low kon as slower complex formation.

The target in one assay is T1, VEGF-A (human, UniProt P15692 207-395).
T1 construct: also called hVEGF165
The assay is described as follows: Biacore SPR; DVD-Ig captured on anti-human Fc, antigen injected. The procedure: (§1) For example, approximately 9000 RU of goat anti-human Fc specific polyclonal antibody (Thermo Fisher Scientific Inc., Rockford, Ill.) diluted in 10 mM sodium acetate (pH 4.5) is directly immobilized across a CM5 research grade biosensor chip using a standard amine coupling kit according to manufacturer's instructions and procedures at 25 μg/ml. Unreacted moieties on the biosensor surface were blocked with ethanolamine. For kinetic analysis, rate equations derived from the 1:1 Langmuir binding model were fitted simultaneously to multiple antigen injections (using global fit analysis) with the use of Scrubber 2 (BioLogic Software), Biacore Biaevaluation 4.0.1 software or Biacore T100 Evaluation software. Purified antibodies or DVD-Ig molecules were diluted in running buffer for capture across goat anti-human Fc reaction surfaces. Antibodies or DVD-Ig molecules to be captured as a ligand (1 μg/ml) were injected over reaction matrices at a flow rate of 10 μl/minute. During the assay, all measurements were referenced against the capture surface alone (i.e., with no captured antibody or DVD-Ig molecule). […] The equilibrium dissociation constant KD (M) of the reaction between antibodies and the target antigen was then calculated from the kinetic rate constants by the following formula: KD=Koff/Kₒₙ. Binding was recorded as a function of time and kinetic rate constants were calculated.

For another assay, the target named is T2, PDGF-BB (human, UniProt P01127 82-190, limits assumed).
T2 construct: also called human PDGF-BB; hPDGF-BB
The description is as above. The procedure:
as §1

T1 sequence (P15692 other isoform, or with tags, fused parts or gaps limits assumed): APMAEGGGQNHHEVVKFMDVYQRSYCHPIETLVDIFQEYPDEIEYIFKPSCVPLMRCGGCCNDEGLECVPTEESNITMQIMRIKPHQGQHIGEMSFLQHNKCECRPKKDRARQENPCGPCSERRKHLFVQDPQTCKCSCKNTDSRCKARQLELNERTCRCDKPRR
T2 sequence (P01127 82-190 limits assumed): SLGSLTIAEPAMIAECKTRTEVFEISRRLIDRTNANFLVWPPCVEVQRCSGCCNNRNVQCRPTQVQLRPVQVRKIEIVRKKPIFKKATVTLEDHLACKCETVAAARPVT

B1: 9A8.12-SL-9E8.4E (PR-1577166) (bispecific antibody, human IgG1, kappa, L234A L235A)
heavy: EVQLVQSGAEVKKPGASVKVSCKASGYTFTNYGMYWVRQAPGQGLEWMGWINTETGKPIYADDFKGRVTMTTDTSTSTAYMELRSLRSDDTAVYYCARVDYDGSFWFAYWGQGTLVTVSSASTKGPEVTLRESGPALVKPTQTLTLTCTFSGFSLSTYGMGVGWIRQPPGKALEWLANIWWDDDKYYNPSLKNRLTISKDTSKNQVVLTMTNMDPVDTATYYCARIESIGTTYSFDYWGQGTMVTVSSASTKGPSVFPLAPSSKSTSGGTAALGCLVKDYFPEPVTVSWNSGALTSGVHTFPAVLQSSGLYSLSSVVTVPSSSLGTQTYICNVNHKPSNTKVDKKVEPKSCDKTHTCPPCPAPEAAGGPSVFLFPPKPKDTLMISRTPEVTCVVVDVSHEDPEVKFNWYVDGVEVHNAKTKPREEQYNSTYRVVSVLTVLHQDWLNGKEYKCKVSNKALPAPIEKTISKAKGQPREPQVYTLPPSREEMTKNQVSLTCLVKGFYPSDIAVEWESNGQPENNYKTTPPVLDSDGSFFLYSKLTVDKSRWQQGNVFSCSVMHEALHNAYTQKSLSLSPGK
light: DTQLTQSPSSLSASVGDRVTITCRASESVSTVIHWYQQKPGKQPKLLIHGASNLESGVPSRFSGSGSGTDFTLTISSLQPEDFATYFCQQHWNDPPTFGQGTKLEIKRTVAAPSVFIFPPEFVLTQSPGTLSLSPGERATLSCERSSGDIGESYVSWYQQKPGQAPRLVIYADDQRPSGIPDRFSGSGSGTDFTLTISRLEPEDFAVYYCQSYDINIDIVFGGGTKVEIKRTVAAPSVFIFPPSDEQLKSGTASVVCLLNNFYPREAKVQWKVDNALQSGNSQESVTEQDSKDSTYSLSSTLTLSKADYEKHKVYACEVTHQGLSSPVTKSFNRGEC
notes: DVD-Ig: outer hBEW-9A8.12 (VEGF), inner hBDI-9E8.4E (PDGF), linkers HG-short/LK-long; Human IgG1 L234A, L235A, H435A with kappa
B1: in the assay with VEGF-A, the Kd is 0.47 nM and the kon amounted to 250000 M⁻¹ s⁻¹. Also, in the assay with PDGF-BB, the Kd was 0.0083 nM and the kon stood at 2.7e+07 M⁻¹ s⁻¹.

B2: 9A8.12-LS-9E8.4E (PR-1577547) (bispecific antibody, human IgG1, kappa, L234A L235A)
heavy: EVQLVQSGAEVKKPGASVKVSCKASGYTFTNYGMYWVRQAPGQGLEWMGWINTETGKPIYADDFKGRVTMTTDTSTSTAYMELRSLRSDDTAVYYCARVDYDGSFWFAYWGQGTLVTVSSASTKGPSVFPLAPEVTLRESGPALVKPTQTLTLTCTFSGFSLSTYGMGVGWIRQPPGKALEWLANIWWDDDKYYNPSLKNRLTISKDTSKNQVVLTMTNMDPVDTATYYCARIESIGTTYSFDYWGQGTMVTVSSASTKGPSVFPLAPSSKSTSGGTAALGCLVKDYFPEPVTVSWNSGALTSGVHTFPAVLQSSGLYSLSSVVTVPSSSLGTQTYICNVNHKPSNTKVDKKVEPKSCDKTHTCPPCPAPEAAGGPSVFLFPPKPKDTLMISRTPEVTCVVVDVSHEDPEVKFNWYVDGVEVHNAKTKPREEQYNSTYRVVSVLTVLHQDWLNGKEYKCKVSNKALPAPIEKTISKAKGQPREPQVYTLPPSREEMTKNQVSLTCLVKGFYPSDIAVEWESNGQPENNYKTTPPVLDSDGSFFLYSKLTVDKSRWQQGNVFSCSVMHEALHNAYTQKSLSLSPGK
light: DTQLTQSPSSLSASVGDRVTITCRASESVSTVIHWYQQKPGKQPKLLIHGASNLESGVPSRFSGSGSGTDFTLTISSLQPEDFATYFCQQHWNDPPTFGQGTKLEIKRTVAAPEFVLTQSPGTLSLSPGERATLSCERSSGDIGESYVSWYQQKPGQAPRLVIYADDQRPSGIPDRFSGSGSGTDFTLTISRLEPEDFAVYYCQSYDINIDIVFGGGTKVEIKRTVAAPSVFIFPPSDEQLKSGTASVVCLLNNFYPREAKVQWKVDNALQSGNSQESVTEQDSKDSTYSLSSTLTLSKADYEKHKVYACEVTHQGLSSPVTKSFNRGEC
notes: DVD-Ig: outer hBEW-9A8.12 (VEGF), inner hBDI-9E8.4E (PDGF), linkers HG-long/LK-short; Human IgG1 L234A, L235A, H435A with kappa
In the assay with VEGF-A, B2 had a Kd of 0.35 nM and a kon of 270000 M⁻¹ s⁻¹. In the assay with PDGF-BB, this molecule returned a Kd of 0.0065 nM and a kon of 3.6e+07 M⁻¹ s⁻¹.

B3: 9A8.12-GS-9E8.4E (PR-1577165) (bispecific antibody, human IgG1, kappa, L234A L235A)
heavy: EVQLVQSGAEVKKPGASVKVSCKASGYTFTNYGMYWVRQAPGQGLEWMGWINTETGKPIYADDFKGRVTMTTDTSTSTAYMELRSLRSDDTAVYYCARVDYDGSFWFAYWGQGTLVTVSSGGGGSGGGGSEVTLRESGPALVKPTQTLTLTCTFSGFSLSTYGMGVGWIRQPPGKALEWLANIWWDDDKYYNPSLKNRLTISKDTSKNQVVLTMTNMDPVDTATYYCARIESIGTTYSFDYWGQGTMVTVSSASTKGPSVFPLAPSSKSTSGGTAALGCLVKDYFPEPVTVSWNSGALTSGVHTFPAVLQSSGLYSLSSVVTVPSSSLGTQTYICNVNHKPSNTKVDKKVEPKSCDKTHTCPPCPAPEAAGGPSVFLFPPKPKDTLMISRTPEVTCVVVDVSHEDPEVKFNWYVDGVEVHNAKTKPREEQYNSTYRVVSVLTVLHQDWLNGKEYKCKVSNKALPAPIEKTISKAKGQPREPQVYTLPPSREEMTKNQVSLTCLVKGFYPSDIAVEWESNGQPENNYKTTPPVLDSDGSFFLYSKLTVDKSRWQQGNVFSCSVMHEALHNAYTQKSLSLSPGK
light: DTQLTQSPSSLSASVGDRVTITCRASESVSTVIHWYQQKPGKQPKLLIHGASNLESGVPSRFSGSGSGTDFTLTISSLQPEDFATYFCQQHWNDPPTFGQGTKLEIKRGGSGGGGSGEFVLTQSPGTLSLSPGERATLSCERSSGDIGESYVSWYQQKPGQAPRLVIYADDQRPSGIPDRFSGSGSGTDFTLTISRLEPEDFAVYYCQSYDINIDIVFGGGTKVEIKRTVAAPSVFIFPPSDEQLKSGTASVVCLLNNFYPREAKVQWKVDNALQSGNSQESVTEQDSKDSTYSLSSTLTLSKADYEKHKVYACEVTHQGLSSPVTKSFNRGEC
notes: DVD-Ig: outer hBEW-9A8.12 (VEGF), inner hBDI-9E8.4E (PDGF), linkers GS-H10/GS-L10; Human IgG1 L234A, L235A, H435A with kappa
Consider B3, for which the Kd with VEGF-A was determined as 0.18 nM; with PDGF-BB it was 0.0081 nM. In addition, the values for the kon in the assay with VEGF-A and with PDGF-BB were 770000 M⁻¹ s⁻¹ and 3.3e+07 M⁻¹ s⁻¹, respectively.

B4: 9E8.4E-SL-9A8.12 (PR-1577548) (bispecific antibody, human IgG1, kappa, L234A L235A)
heavy: EVTLRESGPALVKPTQTLTLTCTFSGFSLSTYGMGVGWIRQPPGKALEWLANIWWDDDKYYNPSLKNRLTISKDTSKNQVVLTMTNMDPVDTATYYCARIESIGTTYSFDYWGQGTMVTVSSASTKGPEVQLVQSGAEVKKPGASVKVSCKASGYTFTNYGMYWVRQAPGQGLEWMGWINTETGKPIYADDFKGRVTMTTDTSTSTAYMELRSLRSDDTAVYYCARVDYDGSFWFAYWGQGTLVTVSSASTKGPSVFPLAPSSKSTSGGTAALGCLVKDYFPEPVTVSWNSGALTSGVHTFPAVLQSSGLYSLSSVVTVPSSSLGTQTYICNVNHKPSNTKVDKKVEPKSCDKTHTCPPCPAPEAAGGPSVFLFPPKPKDTLMISRTPEVTCVVVDVSHEDPEVKFNWYVDGVEVHNAKTKPREEQYNSTYRVVSVLTVLHQDWLNGKEYKCKVSNKALPAPIEKTISKAKGQPREPQVYTLPPSREEMTKNQVSLTCLVKGFYPSDIAVEWESNGQPENNYKTTPPVLDSDGSFFLYSKLTVDKSRWQQGNVFSCSVMHEALHNAYTQKSLSLSPGK
light: EFVLTQSPGTLSLSPGERATLSCERSSGDIGESYVSWYQQKPGQAPRLVIYADDQRPSGIPDRFSGSGSGTDFTLTISRLEPEDFAVYYCQSYDINIDIVFGGGTKVEIKRTVAAPSVFIFPPDTQLTQSPSSLSASVGDRVTITCRASESVSTVIHWYQQKPGKQPKLLIHGASNLESGVPSRFSGSGSGTDFTLTISSLQPEDFATYFCQQHWNDPPTFGQGTKLEIKRTVAAPSVFIFPPSDEQLKSGTASVVCLLNNFYPREAKVQWKVDNALQSGNSQESVTEQDSKDSTYSLSSTLTLSKADYEKHKVYACEVTHQGLSSPVTKSFNRGEC
notes: DVD-Ig: outer hBDI-9E8.4E (PDGF), inner hBEW-9A8.12 (VEGF), linkers HG-short/LK-long; Human IgG1 L234A, L235A, H435A with kappa
Turning to B4, in the assay with VEGF-A, the Kd is 0.16 nM and the kon turned out to be 2.2e+06 M⁻¹ s⁻¹. For the same molecule, in the assay with PDGF-BB, the Kd amounted to 0.0064 nM and the kon amounted to 5e+07 M⁻¹ s⁻¹.

B5: 9E8.4E-LS-9A8.12 (PR-1577550) (bispecific antibody, human IgG1, kappa, L234A L235A)
heavy: EVTLRESGPALVKPTQTLTLTCTFSGFSLSTYGMGVGWIRQPPGKALEWLANIWWDDDKYYNPSLKNRLTISKDTSKNQVVLTMTNMDPVDTATYYCARIESIGTTYSFDYWGQGTMVTVSSASTKGPSVFPLAPEVQLVQSGAEVKKPGASVKVSCKASGYTFTNYGMYWVRQAPGQGLEWMGWINTETGKPIYADDFKGRVTMTTDTSTSTAYMELRSLRSDDTAVYYCARVDYDGSFWFAYWGQGTLVTVSSASTKGPSVFPLAPSSKSTSGGTAALGCLVKDYFPEPVTVSWNSGALTSGVHTFPAVLQSSGLYSLSSVVTVPSSSLGTQTYICNVNHKPSNTKVDKKVEPKSCDKTHTCPPCPAPEAAGGPSVFLFPPKPKDTLMISRTPEVTCVVVDVSHEDPEVKFNWYVDGVEVHNAKTKPREEQYNSTYRVVSVLTVLHQDWLNGKEYKCKVSNKALPAPIEKTISKAKGQPREPQVYTLPPSREEMTKNQVSLTCLVKGFYPSDIAVEWESNGQPENNYKTTPPVLDSDGSFFLYSKLTVDKSRWQQGNVFSCSVMHEALHNAYTQKSLSLSPGK
light: EFVLTQSPGTLSLSPGERATLSCERSSGDIGESYVSWYQQKPGQAPRLVIYADDQRPSGIPDRFSGSGSGTDFTLTISRLEPEDFAVYYCQSYDINIDIVFGGGTKVEIKRTVAAPDTQLTQSPSSLSASVGDRVTITCRASESVSTVIHWYQQKPGKQPKLLIHGASNLESGVPSRFSGSGSGTDFTLTISSLQPEDFATYFCQQHWNDPPTFGQGTKLEIKRTVAAPSVFIFPPSDEQLKSGTASVVCLLNNFYPREAKVQWKVDNALQSGNSQESVTEQDSKDSTYSLSSTLTLSKADYEKHKVYACEVTHQGLSSPVTKSFNRGEC
notes: DVD-Ig: outer hBDI-9E8.4E (PDGF), inner hBEW-9A8.12 (VEGF), linkers HG-long/LK-short; Human IgG1 L234A, L235A, H435A with kappa
For the molecule B5, in the assay with VEGF-A, binding was put at a Kd of 0.23 nM and the kon stood at 640000 M⁻¹ s⁻¹. In the assay with PDGF-BB, this molecule came in with a Kd of 0.005 nM and a kon of 5e+07 M⁻¹ s⁻¹.
